Patent US20150307603A1 (MODIQUEST B V, published 2015)
Non-standard residues stand in square brackets, D forms with d. No end group written: not given here. Cit = NC(=O)NCCC[C@H](N)C(=O)O

What was measured:
[1] = biological target: T1, huPAD2-deiminated human recombinant histone 3 (human); test: ELISA, Ab 0.4 ug/well
T1 construct: also called H3/p2; histone 3/p2
Text: (§1) The resulting OD (y-axis) is a measure for antibody binding. H1-recombinant histone 1; H1/p2-huPAD2 recombinant histone 1; H1/p4-huPAD4 recombinant histone 1, and so forth (x-axis).

[2] = biological target: T2, huPAD4-deiminated human recombinant histone 3 (human); test: ELISA, Ab 0.4 ug/well
T2 construct: also called H3/p4
Text: as §1

[3] = biological target: human recombinant histone 4 (human, UniProt P62805 2-103); test: ELISA, Ab 0.4 ug/well
Text: as §1

[4] = biological target: T3, huPAD2-deiminated human recombinant histone 2B (human); test: ELISA, Ab 0.4 ug/well
T3 construct: also called H2B/p2
Text: as §1

[5] = biological target: T4, huPAD4-deiminated human recombinant histone 2B (human); test: ELISA, Ab 0.4 ug/well
T4 construct: also called H2B/p4
Text: as §1

[6] = biological target: T5, human recombinant histone 3 (human); test: ELISA, Ab 0.4 ug/well
T5 construct: Non-deiminated; also called H3
Text: as §1

[7] = biological target: T6, huPAD2-deiminated human recombinant histone 2A (human); test: ELISA, Ab 0.4 ug/well
T6 construct: also called H2A/p2; histone 2A/p2
Text: as §1

CFC-1 [8] = biological target: T7, CFC-1; test: ELISA, Ab 0.4 ug/well
T7 construct: Positive control for anti-citrulline reactivity; also called cfc1 XG; Cfc1-peptide
Text: as §1

[9] = biological target: T8, huPAD4-deiminated human recombinant histone 2A (human); test: ELISA, Ab 0.4 ug/well
T8 construct: also called H2A/p4; histone 2A/p4
Text: as §1

[10] = biological target: T9, human recombinant histone 2A (human); test: ELISA, Ab 0.4 ug/well
T9 construct: Non-deiminated; also called H2A
Text: as §1

[11] = biological target: T10, peptide no. 9 (human histone 2A) (human, also: biotin-labelled); test: ELISA, Ab 0.00064 ug/well
T10 construct: also called peptide 9
T10 peptide: DNKKT[Cit]IIPRHL
Experimental: (§2) Biotin and citrulline-containing peptides derived from histone 2A were immobilized on NEUTRAVIDIN®-coated 96-well ELISA plates (0.3 μg/well). CFC-1 and CFC-0 were coated at the same concentration and served as positive and negative controls, respectively, for specific anti-citrulline reactivity and as coating controls. Non-coated wells were used to test for aspecific binding of the antibodies. […] Detection of bound anti-citrulline antibodies was performed by incubating the wells with rabbit anti-human HRP (1:2000) for 1 hour at RT followed by incubation with TMB substrate. The resulting OD (y-axis) is a measure for antibody binding.

[12] = biological target: T11, peptide no. 2 (human histone 2A) (human, also: biotin-labelled); test: ELISA, Ab 0.00064 ug/well
T11 construct: also called peptide 2
T11 peptide: AKAKS[Cit]SSRAGL
Experimental: as §2

[13] = biological target: T12, peptide no. 8 (human histone 2A) (human, also: biotin-labelled); test: ELISA, Ab 0.00064 ug/well
T12 construct: also called peptide 8
T12 peptide: AGNAA[Cit]DNKKTR
Experimental: as §2

[14] = biological target: T13, peptide no. 4 (human histone 2A) (human, also: biotin-labelled); test: ELISA, Ab 0.00064 ug/well
T13 construct: also called peptide 4
T13 peptide: QFPVG[Cit]VHRLLR
Experimental: as §2

CFC-1 [15] = biological target: T7, CFC-1; test: ELISA, Ab 0.00064 ug/well
Experimental: as §2

[16] = biological target: T14, peptide no. 11 (human histone 2A) (human, also: biotin-labelled); test: ELISA, Ab 0.00064 ug/well
T14 construct: also called peptide 11
T14 peptide: LQLAI[Cit]NDEELN
Experimental: as §2

[17] = biological target: T15, peptide no. 1 (human histone 2A) (human, also: biotin-labelled); test: ELISA, Ab 0.00064 ug/well
T15 construct: also called peptide 1; AAASGXGKQGGK
T15 peptide: AAASG[Cit]GKQGGK
Experimental: as §2

[18] = biological target: T16, peptide no. 3 (human histone 2A) (human, also: biotin-labelled); test: ELISA, Ab 0.016 ug/well
T16 construct: also called peptide 3
T16 peptide: KSRSS[Cit]AGLQFP
Experimental: as §2

[19] = biological target: T11, peptide no. 2 (human histone 2A); test: ELISA, Ab 0.016 ug/well
Experimental: as §2

[20] = biological target: T14, peptide no. 11 (human histone 2A); test: ELISA, Ab 0.016 ug/well
Experimental: as §2

msFibα XG = biological target: T17, msFibα XG (mouse, X at position 8 = citrulline; biotin-labelled); test: ELISA, Ab 0.08 ug/well
T17 peptide: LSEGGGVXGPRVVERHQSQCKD
Experimental: as §2, with “fibrinogen and vimentin” for “histone 2A”
(§3) Biotin-labeled and citrulline-containing fibrinogen and vimentin peptides (Table 5) were also tested for reactivity with the therapeutic antibodies. Peptides were coated on 96-well NEUTRAVIDIN®-ELISA plates.

msFibα XH = biological target: T18, msFibα XH (mouse, X at position 15 = citrulline; biotin-labelled); test: ELISA, Ab 0.08 ug/well
T18 peptide: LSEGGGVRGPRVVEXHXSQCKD
Experimental: as §2, with “fibrinogen and vimentin” for “histone 2A”
as §3

msFibβ XG = biological target: T19, msFibβ XG (mouse, also: biotin-labelled); test: ELISA, Ab 0.08 ug/well
T19 construct: also called mouse fibrinogen β peptide
T19 peptide: EPTDSLDA[Cit]GHRPVDRR
Experimental: as §2, with “fibrinogen and vimentin” for “histone 2A”
as §3

CFC-1 [21] = biological target: T7, CFC-1; test: ELISA, Ab 0.08 ug/well
Experimental: as §2, with “fibrinogen and vimentin” for “histone 2A”
as §3

huFibα XG = biological target: T20, huFibα XG (human, X at position 8 = citrulline; biotin-labelled); test: ELISA, Ab 0.08 ug/well
T20 peptide: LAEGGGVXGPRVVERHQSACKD
Experimental: as §2, with “fibrinogen and vimentin” for “histone 2A”
as §3

huFibα XH = biological target: T21, huFibα XH (human, X at position 15 = citrulline; biotin-labelled); test: ELISA, Ab 0.08 ug/well
T21 peptide: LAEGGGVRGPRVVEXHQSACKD
Experimental: as §2, with “fibrinogen and vimentin” for “histone 2A”
as §3

msVim XS/XL = biological target: T22, msVim XS/XL (mouse, also: biotin-labelled); test: ELISA, Ab 0.08 ug/well
T22 construct: also called mouse vimentin peptide
T22 peptide: YVT[Cit]SSAV[Cit]L[Cit]SSVP
Experimental: as §2, with “fibrinogen and vimentin” for “histone 2A”
as §3

B1: RhmAb2.102 (antibody, human IgG1, lambda)
heavy: not shown
light: QSVLTQPPSMSAAPGQKVTISCSGSSSNIGNNYVSWYQQVPGTAPKLLIYDDNKRPSGIPGRFSGSKSATSATLGITGLQAGDEADYYCGSWDDNLSVVLFGGGTKLTVLGQPKAAPSVTLFPPSSEELQANKATLVCLISDFYPGAVTVAWKADSSPVKAGVETTTPSKQSNNKYAASSYLSLTPEQWKSHRSYSCQVTHEGSTVEKTVAPTECS
notes: Human IgG1 lambda; also called Rhm2.102
**Q.** Which results are given for B1?
**A.** OD [1]: 1.18 OD450; OD [2]: 0.166 OD450; OD [3]: 0.091 OD450; OD [4]: 0.06 OD450; OD [5]: 0.054 OD450; OD [6]: 0.08 OD450; OD [7]: 3.08 OD450; OD (CFC-1 [8]): 3.12 OD450; OD [9]: 2.72 OD450; OD [10]: 0.071 OD450; OD [11]: 0.059 OD450; OD [12]: 0.055 OD450; OD [13]: 0.057 OD450; OD [14]: 0.063 OD450; OD (CFC-1 [15]): 0.621 OD450; OD [16]: 0.06 OD450; OD [17]: 0.16 OD450; OD [18]: 0.07 OD450; OD [19]: 0.065 OD450; OD [20]: 0.069 OD450; OD (msFibα XG): 0.237 OD450; OD (msFibα XH): 0.076 OD450; OD (msFibβ XG): 0.515 OD450; OD (CFC-1 [21]): 3.03 OD450; OD (huFibα XG): 0.186 OD450; OD (huFibα XH): 0.08 OD450; OD (msVim XS/XL): 0.515 OD450
